Measured values: paper PMC6048507
Like-named read-outs stand apart in the source and are kept apart here.

Key:
[1] = biological target: mavirus cysteine protease (MVP) (mavirus)
[2] = biological target: mavirus penton protein (minor capsid protein, MV17), purified (mavirus); assay: crystal structure
[3] = biological target: mavirus penton protein (minor capsid protein, MV17), purified (mavirus)
[4] = biological target: mavirus major capsid protein, full-length (flMCP), purified capsomer (mavirus); assay: crystal structure
[5] = biological target: mavirus major capsid protein, full-length (flMCP), purified capsomer (mavirus)
[6] = biological target: mavirus major capsid protein truncated at the C terminus (MCPΔC, res. 1–516), purified capsomer (mavirus); assay: crystal structure
[7] = biological target: mavirus major capsid protein truncated at the C terminus (MCPΔC, res. 1–516), purified capsomer (mavirus)

mavirus cysteine protease (MVP) (enzyme)
stoichiometry N [1]: 2

mavirus penton protein (minor capsid protein, MV17), purified (natural protein)
stoichiometry N [2]: 5
stoichiometry N [3]: 5

mavirus major capsid protein, full-length (flMCP), purified capsomer (natural protein)
stoichiometry N [4]: 3
stoichiometry N [5]: 3

mavirus major capsid protein truncated at the C terminus (MCPΔC, res. 1–516), purified capsomer (domain or fragment)
stoichiometry N [6]: 3
stoichiometry N [7]: 3
